Experimental data as given in paper doi:10.1101/2025.06.17.660062 (bioRxiv, 2025).

Key:
[1] = biological target: R^EEZZ (RZZ with phosphomimetic ROD T13E-S15E) (UniProt P50748 1-2209; Q9H900 1-591; O43264 1-779, T13E | S15E); test: pull-down
[2] = biological target: mCherry-RZZ (ROD-Zwilch-ZW10 complex, wild type) (UniProt P50748 1-2209; Q9H900 1-591; O43264 1-779); test: SEC
Chain of mCherry-RZZ (ROD-Zwilch-ZW10 complex, wild type) (P50748 whole entry, chain 1 of 3): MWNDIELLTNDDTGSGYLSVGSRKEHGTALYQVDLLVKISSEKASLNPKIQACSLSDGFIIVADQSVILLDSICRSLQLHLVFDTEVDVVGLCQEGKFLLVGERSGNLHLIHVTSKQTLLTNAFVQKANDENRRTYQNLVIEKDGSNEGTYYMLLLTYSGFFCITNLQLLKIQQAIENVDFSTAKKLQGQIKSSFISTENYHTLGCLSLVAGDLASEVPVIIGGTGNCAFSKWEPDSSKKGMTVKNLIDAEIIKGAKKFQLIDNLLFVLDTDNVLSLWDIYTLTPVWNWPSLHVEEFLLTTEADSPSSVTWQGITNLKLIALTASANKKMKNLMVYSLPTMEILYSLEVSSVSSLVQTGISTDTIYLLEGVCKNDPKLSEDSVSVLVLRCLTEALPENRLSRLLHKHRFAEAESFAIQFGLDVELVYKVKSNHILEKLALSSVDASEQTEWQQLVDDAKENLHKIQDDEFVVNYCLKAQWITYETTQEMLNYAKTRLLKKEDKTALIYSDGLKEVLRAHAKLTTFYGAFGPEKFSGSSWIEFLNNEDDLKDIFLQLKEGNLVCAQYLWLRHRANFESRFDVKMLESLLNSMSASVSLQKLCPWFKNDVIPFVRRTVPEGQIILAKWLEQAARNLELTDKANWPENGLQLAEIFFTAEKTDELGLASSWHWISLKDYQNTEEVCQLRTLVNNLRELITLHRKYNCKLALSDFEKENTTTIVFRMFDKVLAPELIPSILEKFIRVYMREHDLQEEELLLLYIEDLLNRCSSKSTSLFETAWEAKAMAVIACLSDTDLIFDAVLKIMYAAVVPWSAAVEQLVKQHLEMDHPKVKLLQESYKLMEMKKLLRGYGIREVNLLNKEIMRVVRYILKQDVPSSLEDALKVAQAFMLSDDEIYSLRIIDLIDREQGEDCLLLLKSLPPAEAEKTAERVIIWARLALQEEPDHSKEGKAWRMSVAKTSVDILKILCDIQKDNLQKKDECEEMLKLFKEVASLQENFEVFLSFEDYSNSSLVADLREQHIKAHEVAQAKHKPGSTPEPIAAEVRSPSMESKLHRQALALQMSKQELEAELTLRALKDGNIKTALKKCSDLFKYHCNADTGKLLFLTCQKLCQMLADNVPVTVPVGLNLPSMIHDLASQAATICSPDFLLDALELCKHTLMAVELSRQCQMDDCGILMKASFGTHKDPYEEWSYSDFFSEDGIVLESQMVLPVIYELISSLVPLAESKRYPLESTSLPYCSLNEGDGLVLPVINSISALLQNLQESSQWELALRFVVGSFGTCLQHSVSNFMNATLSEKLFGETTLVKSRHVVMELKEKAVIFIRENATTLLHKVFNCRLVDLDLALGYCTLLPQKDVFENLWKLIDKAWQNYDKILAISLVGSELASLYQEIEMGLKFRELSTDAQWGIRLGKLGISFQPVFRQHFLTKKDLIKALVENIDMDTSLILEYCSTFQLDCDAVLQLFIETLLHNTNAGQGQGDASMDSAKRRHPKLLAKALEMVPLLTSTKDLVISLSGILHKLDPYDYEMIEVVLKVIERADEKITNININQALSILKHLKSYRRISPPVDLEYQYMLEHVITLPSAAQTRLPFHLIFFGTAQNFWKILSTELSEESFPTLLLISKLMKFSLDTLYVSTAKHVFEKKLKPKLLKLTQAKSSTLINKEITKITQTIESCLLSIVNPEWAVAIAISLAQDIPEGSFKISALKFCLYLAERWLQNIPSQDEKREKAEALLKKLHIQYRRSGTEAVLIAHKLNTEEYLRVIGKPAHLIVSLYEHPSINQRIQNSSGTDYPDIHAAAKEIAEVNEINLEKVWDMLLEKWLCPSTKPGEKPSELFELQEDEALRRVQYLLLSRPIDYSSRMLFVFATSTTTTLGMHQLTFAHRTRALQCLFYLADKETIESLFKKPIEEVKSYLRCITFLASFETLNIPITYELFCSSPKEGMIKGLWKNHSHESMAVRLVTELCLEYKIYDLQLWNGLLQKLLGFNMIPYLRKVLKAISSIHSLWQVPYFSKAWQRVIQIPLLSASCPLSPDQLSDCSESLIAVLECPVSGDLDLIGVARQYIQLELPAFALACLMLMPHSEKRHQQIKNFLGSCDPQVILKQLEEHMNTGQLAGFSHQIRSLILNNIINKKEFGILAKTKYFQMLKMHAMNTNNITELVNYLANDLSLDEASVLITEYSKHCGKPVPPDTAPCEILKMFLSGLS
Chain of mCherry-RZZ (ROD-Zwilch-ZW10 complex, wild type) (Q9H900 whole entry, chain 2 of 3): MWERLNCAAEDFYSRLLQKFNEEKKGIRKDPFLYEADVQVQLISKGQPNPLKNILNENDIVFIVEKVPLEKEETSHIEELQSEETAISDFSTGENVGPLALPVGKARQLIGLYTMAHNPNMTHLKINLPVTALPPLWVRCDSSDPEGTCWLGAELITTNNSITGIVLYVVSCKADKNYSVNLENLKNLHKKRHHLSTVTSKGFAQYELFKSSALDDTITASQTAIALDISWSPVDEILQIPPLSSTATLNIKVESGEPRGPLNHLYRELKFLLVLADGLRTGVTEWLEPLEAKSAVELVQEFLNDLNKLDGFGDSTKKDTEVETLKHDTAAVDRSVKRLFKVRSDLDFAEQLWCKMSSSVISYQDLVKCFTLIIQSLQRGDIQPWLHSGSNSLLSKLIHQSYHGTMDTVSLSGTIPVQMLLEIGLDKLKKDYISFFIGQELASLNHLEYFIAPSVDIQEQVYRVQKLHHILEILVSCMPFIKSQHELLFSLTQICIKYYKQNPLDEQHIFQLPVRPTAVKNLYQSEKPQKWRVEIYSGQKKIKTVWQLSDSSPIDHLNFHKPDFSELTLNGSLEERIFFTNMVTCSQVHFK
Chain of mCherry-RZZ (ROD-Zwilch-ZW10 complex, wild type) (O43264 whole entry, chain 3 of 3): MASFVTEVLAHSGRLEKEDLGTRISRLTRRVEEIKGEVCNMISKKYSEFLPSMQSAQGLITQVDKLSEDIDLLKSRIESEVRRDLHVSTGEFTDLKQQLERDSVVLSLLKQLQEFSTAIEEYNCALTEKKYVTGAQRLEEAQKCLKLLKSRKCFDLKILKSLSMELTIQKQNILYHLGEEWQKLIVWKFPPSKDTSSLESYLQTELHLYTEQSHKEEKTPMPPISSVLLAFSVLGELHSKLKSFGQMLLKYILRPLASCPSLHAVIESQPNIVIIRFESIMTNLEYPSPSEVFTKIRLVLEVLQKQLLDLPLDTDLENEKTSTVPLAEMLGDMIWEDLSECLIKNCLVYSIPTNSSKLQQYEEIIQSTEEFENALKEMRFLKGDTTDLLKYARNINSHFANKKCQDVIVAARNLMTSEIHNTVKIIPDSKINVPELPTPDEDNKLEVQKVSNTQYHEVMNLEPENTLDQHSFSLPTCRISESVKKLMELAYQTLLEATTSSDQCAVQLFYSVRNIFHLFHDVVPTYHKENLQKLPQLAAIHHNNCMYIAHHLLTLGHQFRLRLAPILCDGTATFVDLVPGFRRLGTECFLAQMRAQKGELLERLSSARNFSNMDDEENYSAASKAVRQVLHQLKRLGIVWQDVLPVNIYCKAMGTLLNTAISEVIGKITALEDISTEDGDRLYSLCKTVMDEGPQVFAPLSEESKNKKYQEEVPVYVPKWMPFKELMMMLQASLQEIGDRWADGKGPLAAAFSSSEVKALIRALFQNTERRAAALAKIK

Chain of R^EEZZ (RZZ with phosphomimetic ROD T13E-S15E) (P50748 whole entry T13E/S15E, chain 1 of 3): as the sequence (P50748 whole entry, chain 1 of 3) above, with T13E, S15E counted along it
Chain of R^EEZZ (RZZ with phosphomimetic ROD T13E-S15E) (Q9H900 whole entry, chain 2 of 3): as the sequence (Q9H900 whole entry, chain 2 of 3) above
Chain of R^EEZZ (RZZ with phosphomimetic ROD T13E-S15E) (O43264 whole entry, chain 3 of 3): as the sequence (O43264 whole entry, chain 3 of 3) above

B1: GST-BUB1^467-521 (domain or fragment, UniProt O43683 467-521, looked up)
chain: ALGFIMNMFQAPTLPDISDDKDEWQSLDQNEDAFEAQFQKNVRSSGAWGVNKIIS
[1]
  binding result: binds
[2]
  binding result: binds
